In US20100197581A1 (TIBOTEC PHARMACEUTICALS, published 2010):

Biological target: sCD4 induced HIV-1 IIIB Env complexes (gp120/gp41 native spikes) on HUTIIIB cells (clone 199-76) (HIV-1 IIIB; human, UniProt P04578 33-856; P01730 26-396)

B1: F105 (antibody, V domains shown)
VH: QVQLQESGPGLVKPSETLSLTCTVSGGSISSHYWSWIRQSPGKGLQWIGYIYYSGSTNYSPSLKSRVTISVETSKNQFSLKLTSMTAADTAVYYCARGPVPAVFYGDYRLDPWGQGTLVTVSS
VL: EIVLTQSPGTLSLSAGERATLSCRASQSVSSRYLAWYQQKPGQAPRLLIYGASSRATGIPDRFSGSGSGTDFTLTISRVEPEDFAVYYCQQYDNSVCTFGQGTKLEIK
- EC50: > 100 nM
